{"source": "paper PMC11003968", "about": "“Identification of small molecules affecting the interaction between human hemoglobin and Staphylococcus aureus IsdB hemophore” (Scientific Reports, 2024)", "origin": "cited, not measured here", "key": {"[1]": {"target": "IsdB (Staphylococcus aureus) (UniProt A7X146)", "sequence (A7X146 41-613)": "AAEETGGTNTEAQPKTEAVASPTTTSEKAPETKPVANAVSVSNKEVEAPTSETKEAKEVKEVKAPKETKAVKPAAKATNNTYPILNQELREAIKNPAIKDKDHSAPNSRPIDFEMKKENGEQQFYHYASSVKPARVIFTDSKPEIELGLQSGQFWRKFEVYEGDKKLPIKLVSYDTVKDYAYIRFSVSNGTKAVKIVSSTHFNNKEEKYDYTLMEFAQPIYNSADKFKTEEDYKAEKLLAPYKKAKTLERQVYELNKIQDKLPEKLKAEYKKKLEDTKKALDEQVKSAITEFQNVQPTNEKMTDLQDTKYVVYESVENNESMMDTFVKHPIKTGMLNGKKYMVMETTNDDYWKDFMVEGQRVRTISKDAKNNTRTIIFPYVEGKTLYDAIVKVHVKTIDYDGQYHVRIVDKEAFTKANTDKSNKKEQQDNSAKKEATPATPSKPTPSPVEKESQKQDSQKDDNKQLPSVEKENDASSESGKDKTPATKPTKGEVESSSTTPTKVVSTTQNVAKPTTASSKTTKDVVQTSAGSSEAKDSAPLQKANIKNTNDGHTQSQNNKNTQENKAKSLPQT", "experiment": "SPR"}, "[2]": {"target": "oxyhemoglobin dimer (Homo sapiens) (UniProt P69905)"}}}
{"substance": "hemoglobin (from UniProt P69905)", "values": [{"measurement": "Kd", "setting": "[1]", "result": 35, "unit": "nM"}]}
{"substance": "oxyhemoglobin dimer (from UniProt P69905)", "values": [{"measurement": "Kd", "setting": "[2]", "result": 250, "unit": "nM"}]}
